Test results reported in patent US20180311326A1 (FRAUNHOFER GESELLSCHAFT ZUR FOERDERUNG DER ANGEWANDTEN …, published 2018).

Biological target: T1, AMA1_GKO-HC2.2
T1 construct: PfAMA1_GKO fused to human IgG1 constant region with K392D and K409D already in the entry; also called AMA1GKO-modHC2_K392D-K409D; PfAMA1_GKO-HC2.2-ER
Assay: co-expression in N. benthamiana, SDS-PAGE under reducing and non-reducing conditions

B1: MSP119_3D7-HC1.2-ER (Fc fusion)
chain: ISQHQCVKKQCPENSGCFRHLDEREECKCLLNYKQEGDKCVENPNPTCNENNGGCDADATCTEEDSGSSRKKITCECTKPDSYPLFDGIFCSSSNAAAKGPSVFPLAPSSKSTSGGTAALGCLVKDYFPEPVTVSWNSGALTSGVHTFPAVLQSSGLYSLSSVVTVPSSSLGTQTYICNVNHKPSNTKVDKKVEPKSCDKTHTCPPCPAPELLGGPSVFLFPPKPKDTLMISRTPEVTCVVVDVSHEDPEVKFNWYVDGVEVHNAKTKPREEQYNSTYRVVSVLTVLHQDWLNGKEYKCKVSNKAFPAPIEKTISKAKGQPREPQVYTLPPSRDKLTKNQVSLTCLVKGFYPSDIAVEWESNGQPENNYKTTPPVLKSDGSFFLYSKLTVDKSRWQQGNVFSCSVMHEALHNHYTQKSLSLSPGKSEKDEL
notes: PfMSP119 (3D7) fused to human IgG1 constant region with E356K and D399K already in the entry; also called MSP119-modHC1_E356K-D399K; PfMSP119_3D7-HC1.2-ER
binding result: binds
